Test [1] deals with T1, mouse CD86 (mouse, UniProt P42082 24-244, limits assumed).
T1 sequence (looked up): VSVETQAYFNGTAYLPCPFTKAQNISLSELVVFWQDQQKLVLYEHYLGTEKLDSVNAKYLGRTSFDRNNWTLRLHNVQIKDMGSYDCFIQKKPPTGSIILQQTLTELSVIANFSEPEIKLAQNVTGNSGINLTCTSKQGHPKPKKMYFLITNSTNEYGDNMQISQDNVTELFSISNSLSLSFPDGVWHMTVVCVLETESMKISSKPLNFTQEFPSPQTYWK
Put plainly: flow cytometry on yeast displaying CTLA4; Normalized FACS Bound, human WT = 1.

For test [2], the target named is T2, human CD86 (epitope mapping reagent) (human, UniProt P42081 24-247, limits assumed).
T2 sequence (looked up): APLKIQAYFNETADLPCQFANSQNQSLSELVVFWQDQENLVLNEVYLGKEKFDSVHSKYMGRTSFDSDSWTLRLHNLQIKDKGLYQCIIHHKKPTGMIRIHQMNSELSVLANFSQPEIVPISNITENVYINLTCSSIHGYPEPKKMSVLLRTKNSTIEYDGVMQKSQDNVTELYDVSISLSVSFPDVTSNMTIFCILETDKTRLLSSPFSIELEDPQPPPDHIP
The description is as above.

Test [3] has as its target T3, human CD80 (recombinant) (human, UniProt P33681 35-242, limits assumed, biotinylated where used in solution).
T3 construct: also called biotinylated CD80
T3 sequence (looked up): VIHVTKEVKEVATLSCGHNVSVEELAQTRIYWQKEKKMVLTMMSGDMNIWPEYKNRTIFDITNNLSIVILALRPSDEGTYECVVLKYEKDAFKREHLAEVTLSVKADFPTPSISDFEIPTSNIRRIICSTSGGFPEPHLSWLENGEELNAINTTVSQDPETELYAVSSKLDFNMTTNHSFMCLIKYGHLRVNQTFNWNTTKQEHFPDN
The test is described as above.

Test [4] deals with T4, recombinant human CTLA4-Fc (Sino Biological, 11159-H03H) (human, UniProt P16410 37-162).
T4 construct: bought; whole entry named; Biotinylated in the yeast display assays; also called human CTLA4 fused with human FC fragment; biotinylated CTLA4-Fc; not shown: human Fc fragment
T4 sequence (looked up): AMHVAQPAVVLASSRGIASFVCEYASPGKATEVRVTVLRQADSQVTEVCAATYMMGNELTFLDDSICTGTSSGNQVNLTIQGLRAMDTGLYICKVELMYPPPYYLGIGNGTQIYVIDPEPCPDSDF
Put plainly: ELISA, coated human CTLA4-Fc, batch 1; Data Batch 1. Here is the method: (§1) Plates were blocked with PBS supplemented with 3% non-fat milk at 37° C. for 1 hour. After washing, 100 μL of 3-fold serial dilutions of antibodies were added to each well. After incubation at 37° C. for 1 hour, plates were washed four times, and […] conjugated anti-human IgG (Fab specific) (1:6000 dilution) was added to each well. Plates were incubated at 37° C. for 1 hour, washed four times, and then 50 μL TMB substrate solution was added to each well, and the plate was incubated at room temperature. […] The EC₅₀ was evaluated by fitting the ELISA data using the asymmetrical sigmoidal (five-parameter logistic equation) model of GraphPad Prism 6 software.

The target of test [5] is T4, recombinant human CTLA4-Fc (Sino …). As to the kind of experiment: ELISA, coated human CTLA4-Fc, batch 2. As for the experimental part:
as §1
On the technique in general: An ELISA detects its analyte on a solid surface through an enzyme-linked reagent.

For test [6] the target is unchanged. Put plainly: ELISA, coated human CTLA4-Fc, batch 1. As for the experimental part:
as §1

Test [7] has the same target. Put plainly: ELISA, coated human CTLA4-Fc. Here is the method:
as §1
The purified activatable antibodies were treated with the proteases which recognize the cleavage sequences, and were then tested to determine whether removal of the masking peptide restored their activity.

The target is the same in test [8]. Put plainly: ELISA, coated human CTLA4-Fc (as Example 8). Here is the method:
as §1

For test [9] the target is unchanged. Put plainly: ELISA, coated human CTLA4-Fc (as Example 8). Here is the method:
as §1
This is another data set of the same source.

Test [10] has the same target. Put plainly: ELISA, coated human CTLA4-Fc (as Example 8). As for the experimental part:
as §1
This is another data set of the same source.

For test [11], the target named is T5, full-length mouse CTLA4 on the cell surface (HEK293F transfectants; also activated mouse T cells) (mouse, UniProt P09793 36-223).
T5 construct: whole, on cells; also called mouse cell-surface exposed mouse CTLA4
Put plainly: flow cytometry on HEK293F cells transiently expressing full-length mouse CTLA4; Alexa Fluor 647 anti-human Fc. As for the experimental part:
(§2) The affinities of the antibodies were also assessed against human and mouse CTLA4 transiently expressed on the surface of HEK293F cells (FIG. 2). Briefly, HEK293F cells were transfected with a plasmid expressing full-length human, monkey or mouse CTLA4 from a bicistronic IRES vector also encoding EGFP, and EGFP expression was used to identify the transfected cells. After 48 hours, the mammalian cell suspension (2×10⁵/well) was transferred to an Eppendorf tube, centrifuged, the supernatant was discarded, the cells were resuspended with 1 mL PBSA (to a density is 4×10⁶ cells/mL), and added to a 96 well plate. […] The cells were then washed once prior to analysis by flow cytometry (Beckman® CytoFlex).

Test [12] deals with T6, full-length human CTLA4 on the cell surface (HEK293F transfectants); also activated human T cells, … (human, UniProt P16410 36-223).
T6 construct: whole, on cells; used for every assay with human CTLA4 on cells; also called HEK293F/hCTLA-4; HEK293F/hCTLA4
T6 sequence (looked up): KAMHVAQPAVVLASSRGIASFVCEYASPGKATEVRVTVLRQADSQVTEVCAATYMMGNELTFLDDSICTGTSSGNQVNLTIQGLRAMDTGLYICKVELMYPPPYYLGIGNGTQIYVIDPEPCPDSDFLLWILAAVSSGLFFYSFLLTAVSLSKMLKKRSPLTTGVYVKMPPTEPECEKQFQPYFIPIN
As to the kind of experiment: flow cytometry on HEK293F cells transiently expressing full-length human CTLA4; Alexa Fluor 647 anti-human Fc. As for the experimental part:
as §2
(In general: A flow cytometer gives signals particle by particle.)

The target of test [13] is T7, recombinant human CTLA4 fused with human Fc and His tag (human, UniProt P16410 37-162, limits assumed, biotinylated where used in solution).
T7 construct: also called biotinylated human CTLA4 fused with human FC and His tag; recombinant human CTLA4 proteins; not shown: human Fc and His tag
T7 sequence (looked up): T4 sequence (looked up)
As to the kind of experiment: competition ELISA: plate-bound human CTLA4-Fc-His, biotinylated human CD80 as the blocked ligand, HRP-neutravidin. As for the experimental part: Plates were blocked with PBS supplemented with 2% (w/v) skim milk at 37° C. for 1 hour. […] Plates were washed four times, and 100 μL HRP-neutravidin (1:1000) was added to each well and incubated at 37° C. for 1 hour. Plates were washed as previously described, and 50 μL TMB substrate solution was added and incubated at room temperature for 5 minutes before the reaction was stopped by 50 μL sulfate acid (2M).

For test [14], the target named is T8, cynomolgus monkey CTLA4 antigen fused with human FC fragment (cynomolgus monkey, UniProt G7PL88 36-161, fused to a human Fc fragment that is not in the letters).
T8 sequence: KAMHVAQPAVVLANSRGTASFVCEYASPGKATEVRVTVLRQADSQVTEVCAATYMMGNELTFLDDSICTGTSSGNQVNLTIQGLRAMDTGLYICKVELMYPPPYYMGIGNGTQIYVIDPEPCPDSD
Put plainly: ELISA, captured Fab.

Test [15] deals with T9, mouse CTLA4 antigen fused with human FC fragment (mouse, UniProt P09793 36-162, limits assumed).
T9 construct: not shown: human Fc fragment
As to the kind of experiment: ELISA, captured Fab.

Test [16] concerns the target T4, recombinant human CTLA4-Fc (Sino …). As to the kind of experiment: ELISA, captured Fab.

Changes are numbered by the printed parent chain.

B1: human CTLA4 mutant YLGIG105FVGMG displayed on yeast (receptor)
chain: KAMHVAQPAVVLASSRGIASFVCEYASPGKATEVRVTVLRQADSQVTEVCAATYMMGNELTFLDDSICTGTSSGNQVNLTIQGLRAMDTGLYICKVELMYPPPYFVGMGNGTQIYVIDPE
notes: also called G strand changed to mouse
B1: the binding result in test [1], in [2] and in [3] was “binds” each time.

B2: TY22404 (antibody, IgG1, V domains shown)
VH: EVQLVESGGGLVQPGGSLRLSCAASGYSISSGYHWSWIRQAPGKGLEWLARIDWDDDKYYSTSLKSRLTISRDNSKNTLYLQLNSLRAEDTAVYYCARSYVYFDYWGQGTLVTVSS
VL: EVGSYPNPSSDCVPYYYACAYSGRSAGGGGSPLGLAGSGGSDIQLTQSPSSLSASVGDRVTITCRASQSVRGRFLAWYQQKPGKAPKLLIYDASNRATGIPSRFSGSGSGTDFTLTISSLQPEDFATYYCQQSSSWPPTFGQGTKVEIKR
notes: also called masking peptide B13197
In general, EC50 refers to the concentration giving half of the maximal effect. As for B2, the half-maximal effective concentration (EC50) in [4] worked out at 178 nM; in test [5] it was 128 nM; in test [6], 178 nM. The LogEC50 was -6.89 log M in test [5], -6.75 log M in [6] and -7.01 log M in test [7].

B3: TY22404 (peptide as listed in Tables 26 and 29) (antibody, V domains shown)
VH: B2 VH
VL: B2 VL with S31T
notes: kept apart from m68
For the molecule B3, the EC50 worked out at 117 nM in test [8], 122 nM in test [9] and 68.4 nM in test [10].

B4: TY21588 (antibody, V domains shown)
VH: EVQLVESGGGLVQPGGSLRLSCAASGYSISSGYHWDWIRQAPGKGLEWVSGISGYGGSTYYADSVKGRFTISRDNSKNTLYLQLNSLRAEDTAVYYCARHSYYGSGNFDYWGQGTLVTVSS
VL: DIQLTQSPSSLSASVGDRVTITCRASESVDFFGKSFLHWYQQKPGKAPKLLIYDASNLETGVPSRFSGSGSGTDFTLTISSLQPEDFATYYCQQSYSWPPTFGQGTKVEIKR
B4: the binding result in test [11], in test [12] and in [13] was “binds” in each case.

B5: B15732 (Fab, V domains shown)
VH: B4 VH
VL: B4 VL
notes: Fab hit from E. coli
As for B5, the binding result in test [14], in test [15] and in test [16] was “binds” throughout.

The record behind these values is patent US20210206855A1 (ADAGENE, published 2021).
